Measurements taken from the supplement of paper PMC10899765.

Experiments:
Settings in all cases: 20 nM; 72 h
MCF10A [1] = test: one-nucleolus phenotype percent effect (relative to siNT 0% and siNOL11 100%); higher = more cells with one nucleolus (ribosome biogenesis inhibition)
Experimental: (§1)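 After 72 h, cells were fixed and stained with Hoechst and anti-fibrillarin, and nucleoli per nucleus were counted with CellProfiler. Values are plate-adjusted percent effect for the one-nucleolus and 5+ nucleoli phenotypes, normalised to siNT (0%) and to the positive controls siNOL11 or siKIF11 (100%), as the mean of biological triplicates. Percent viability is the nuclei count relative to siNT.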

MCF10A [2] = test: 5+ nucleoli phenotype percent effect (relative to siNT 0% and siKIF11 100%); higher = more cells with five or more nucleoli
Experimental: as §1

MCF10A [3] = test: percent viability (nuclei count relative to siNT); higher = more viable cells
Experimental: as §1

Row | Sequence | one-nucleolus phenotype percent effect (MCF10A [1]) | 5+ nucleoli phenotype percent effect (MCF10A [2]) | percent viability (MCF10A [3])
1 | UUAGUCUCAUGAUCAGACACA [hsa-miR-4474-5p] | -23.4% | 35.6% | 29.8%
2 | AACAAUAUCCUGGUGCUGAGUG [hsa-miR-338-5p] | -0.375% | -1.58% | 47.6%
3 | UCUCGCAUCAGGAGGCAAGG [hsa-miR-6872-5p] | -13% | 24.9% | 56%
4 | UAGACCAUCUUUCUAGAGUAU [hsa-miR-6502-3p] | -0.125% | -0.273% | 102%
5 | GGGCUGGGGCGCGGGGAGGU [hsa-miR-5787] | -30.8% | 60.6% | 150%
6 | UUAGCGGUGGACCGCCCUGCG [hsa-miR-4321] | -12.2% | 3.56% | 47%
7 | CCUCCCACACCCAAGGCUUGCA [hsa-miR-532-3p] | 5.19% | 23.9% | 38.6%
8 | UCAAUAAAUGUCUGUUGAAUU [hsa-miR-95-5p] | -26.5% | 26.3% | 101%
9 | UCCUACGCUGCUCUCUCACUCC [hsa-miR-6761-3p] | -18.4% | 14.2% | 43.5%
10 | CUCAUUUAAGUAGUCUGAUGCC [hsa-miR-5696] | -11.5% | -2.38% | 125%
11 | GUGUGGCCGGCAGGCGGGUGG [hsa-miR-7108-5p] | -12.6% | 6.78% | 55.9%
12 | UAGAUAAAAUAUUGGUACCUG [hsa-miR-577] | -23.7% | 29.6% | 113%
13 | GAAAGCGCUUCUCUUUAGAGG [hsa-miR-518f-3p] | 17.1% | -8.13% | 63.6%
14 | ACCACUGACCGUUGACUGUACC [hsa-miR-181a-2-3p] | -14.1% | 12.6% | 120%
15 | GCUCAGGGAUGAUAACUGUGCUGAGA [hsa-miR-4518] | -10.2% | 31.9% | 55.6%
16 | UCUGGGCACAGGCGGAUGGACAGG [hsa-miR-5189] | 29.3% | -2.97% | 34.5%
17 | UGGUGGGCCGCAGAACAUGUGC [hsa-miR-654-5p] | 20.4% | -8.23% | 31.2%
18 | AUUCUAAUUUCUCCACGUCUUU [hsa-miR-576-5p] | 1.07% | 28.2% | 100%
19 | ACUGCUGAGCUAGCACUUCCCG [hsa-miR-93-3p] | 0.758% | -7.82% | 33.2%
20 | CACACAAGUGGCCCCCAACACU [hsa-miR-4731-3p] | 8.2% | -12.1% | 29.9%
21 | ACAGGUGAGGUUCUUGGGAGCC [hsa-miR-125a-3p] | 5.16% | -0.517% | 62.4%
22 | AAGUGCCGCCAUCUUUUGAGUGU [hsa-miR-371a-3p] | -8.12% | -0.0057% | 45.8%
23 | UGAGGGACAGAUGCCAGAAGCA [hsa-miR-3126-5p] | 40% | -33.3% | 16.2%

Row | Sequence | one-nucleolus phenotype percent effect (MCF10A [1]) | 5+ nucleoli phenotype percent effect (MCF10A [2]) | percent viability (MCF10A [3])
24 | UGGAGAGAAAGGCAGUUCCUGA [hsa-miR-185-5p] | 5.33% | -10.1% | 21.7%
25 | GGGGAGCGAGGGGCGGGGC [hsa-miR-6090] | -21.8% | 36.1% | 164%
26 | UUAGCCAAUUGUCCAUCUUUAG [hsa-miR-4662a-5p] | 9.07% | 1.03% | 33.5%
27 | UGUGGGACUGCAAAUGGGAG [hsa-miR-4648] | 19.7% | -30.5% | 41.5%
28 | GAACGGCUUCAUACAGGAGUU [hsa-miR-337-5p] | 9.16% | -25.8% | 53.8%
29 | CGAAAACAGCAAUUACCUUUGC [hsa-miR-570-3p] | -22.6% | 34.2% | 164%
30 | GGUAUCCGUUUGGGGAUGGU [hsa-miR-3713] | 11.4% | -27.6% | 23.5%
31 | GCAGUGGCUCUGAAAUGAACUC [hsa-miR-5693] | -3.8% | -12.8% | 33.8%
32 | CACUGCAGGACUCAGCAG [hsa-miR-4418] | -4.26% | -22.7% | 55.1%
33 | UUAAGACUUGCAGUGAUGUUU [hsa-miR-499a-5p] | 5.05% | -1.56% | 102%
34 | GCUUGUCGCUGCGGUGUUGCU [hsa-miR-3655] | 29.1% | -7.75% | 65.9%
35 | AAUAGGCCACGGAUCUGGGCAA [hsa-miR-1295b-3p] | 28.6% | 4.51% | 13.8%
36 | UCAGUAAAUGUUUAUUAGAUGA [hsa-miR-545-5p] | -24.2% | 38.8% | 175%
37 | UUCCCUAUCUCACUCUCCUCAG [hsa-miR-6883-3p] | -14.4% | 20.1% | 58.5%
38 | CCAAAUCUUGAUCAGAAGCCU [hsa-miR-4762-5p] | -8.43% | 26.6% | 106%
39 | GACCUGGACAUGUUUGUGCCCAGU [hsa-miR-619] | -30.8% | 64.8% | 128%
40 | CAUGGUUCUGUCAAGCACCGCG [hsa-miR-218-2-3p] | 12.5% | 7.58% | 68%
41 | UGAGGCGGGGGGGCGAGC [hsa-miR-6087] | 15.3% | -13.4% | 53.3%
42 | AAGGGGCAGGGACGGGUGGCCC [hsa-miR-6743-5p] | 1.94% | 0.112% | 29.4%
43 | CAAAACCGCAGUAACUUUUGU [hsa-miR-548at-3p] | 37.5% | -23.4% | 33%
44 | AACAUCACAGCAAGUCUGUGCU [hsa-miR-499a-3p] | -7.15% | -38.3% | 49.3%
45 | GGGACCAUCCUGCCUGCUGUGG [hsa-miR-3619-3p] | -10.4% | 20.9% | 44.4%
